{"source": "patent US20230183305A1", "about": "“KERATIN BD-11, PREPARATION METHOD THEREFOR AND PHARMACEUTICAL COMPOSITION AND USE THEREOF” (INSTITUTE OF MATERIA MEDICA, CHINESE ACADEMY OF MEDICAL …, priority 2019, published 2023)", "key": {"[1]": {"tested_on": "PLO-induced epilepsy in ICR mice", "assay": "Pilocarpine (PLO) induced convulsive epilepsy in mice", "assay_type": "in vivo, mouse", "parameters": "mortality rate: unit not given here", "conditions": "for Cases of deaths / Grade IV seizure rate / mortality rate / Cases of Grade IV: PLO 225 mg/kg i.p., 10 mice; for Cases of Grade IV: 30 min observation; for Grade II seizure incubation period / Grade III seizure incubation period / Grade IV seizure incubation period: mean±SEM; for Grade IV seizure incubation period: no Grade IV recorded as maximum 1800 s", "procedure": "• Animals: male ICR mice; • Drugs: Pilocarpine HCl (PLO, pilocarpine, pilocarpine hydrochloride), Diazepam (diazepam tablets), protein BD-11.\nExperiment grouping: • Model group: • Diazepam 2 mg/kg group; • Protein BD-11, 50 mg/kg group, 200 mg/kg group.\nThe drug was administered once in the afternoon the day before modeling, PLO-225 mg/kg (modeling agent) was injected intraperitoneally 1 hour after the test drug was administered intragastrically on the day of modeling. And positive drug can be administered once 20 minutes before modeling. Observe for 30 minutes after PLO injection.\nObservation indicators: ①Seizure situation: the time of seizures from Grade II to Grade IV; (2)the time to death.\n(§1) Seizure grade: Refer to Racine grading standard: Grade 0: No response; Grade I: manifested as twitching of facial muscles or the corners of the mouth; Grade II: can nod; Grade III: twitching of one limb; Grade IV: rigidity or body twitching; Grade V: generalized epilepsy (generalized tonic seizures).\nCount the number of Grade IV seizures and deaths in each group of mice in the experiment; Grade II, III and IV incubation period. […] Chi-square test was used for statistics of the number of cases. The mean value and standard error of the incubation period were calculated, and TTEST was used to compare the model group with other groups. P<0.05 was considered as a significant difference."}, "[2]": {"tested_on": "lipopolysaccharide (LPS) induced fever in SD rats", "assay": "Lipopolysaccharide (LPS) induced fever model in SD rats", "assay_type": "in vivo, rat", "conditions": "for Body temperature 2 hours after modeling: 2 h after LPS 20 µg/kg i.p.; for Body temperature 2 hours after modeling / Body temperature 4 hours after modeling / Body temperature 6 hours after modeling / Body temperature 8 hours after modeling: n=8; for Body temperature 4 hours after modeling: 4 h after LPS 20 µg/kg i.p.; for Body temperature 6 hours after modeling: 6 h after LPS 20 µg/kg i.p.; for Body temperature 8 hours after modeling: 8 h after LPS 20 µg/kg i.p.", "procedure": "• Animals: 230-260 grams of male SD rats; • Drugs: lipopolysaccharide (LPS, SIGMAL-2880), aspirin (SIGMA A2093), protein BD-11; • Instruments: electronic balance (SARTORIUS BP121S type), electronic clinical thermometer (CITIZEN CT-513W type).\nExperiment grouping: • Normal control group; • Model group: lipopolysaccharide fever model; • Positive control group: Aspirin 300 mg/kg group; • Protein BD-11, 10 mg/kg group, 50 mg/kg group. Method: the method of intraperitoneal injection of Lipopolysaccharide to replicate rat fever model.\nPreparation of experimental animals: After the experimental animals adapt to the experimental environment (temperature 22° C.±2° C., relative humidity 50%±2%) for 1 day. Pre-adaptation to measure rectal temperature at 8:00 and 15:00, rats were fasted and water was taken freely 12 h before experiment, and let the animal to empty its feces before measuring the rectal temperature. Apply petroleum jelly to the electronic thermometer probe before each temperature measurement. Insert the rat rectum 2 cm (can be marked at 2 cm to ensure that the depth of each insertion is consistent), and record the body temperature after the reading is stable.\nIntraperitoneal injection of lipopolysaccharide to replicate rat fever model: The body temperature of the rats was measured before modeling. Qualified rats with a body temperature of 36.2-37.3° C. were selected and randomly divided into groups with 8 rats in each group. After oral administration of aspirin and different doses of protein BD-11, lipopolysaccharide (20 µg/kg, 2 ml/kg) was injected intraperitoneally immediately, and the normal control group was injected intraperitoneally with an equal volume of normal saline. The body temperatures of the rats were monitored after 2 hours for a total of 8 hours.\nAccording to the body temperature measured at each time point on the day of the experiment, calculate the mean, standard deviation and standard error of the body temperature of each group of rats. The data of each group was compared with TTEST, and P<0.05 was considered as a significant difference.\nImmediately after oral administration of aspirin (300 mg/kg), protein BD-11 (10 mg/kg, 50 mg/kg), intraperitoneal injection of 20 µg/kg lipopolysaccharide was performed to establish a model. The animal body temperature was monitored at 2 hours, 4 hours, 6 hours, and 8 hours after modeling."}, "[3]": {"tested_on": "PTZ-induced epilepsy in ICR mice", "assay": "Pentylenetetrazole (PTZ) induced epilepsy in mice", "assay_type": "in vivo, mouse", "parameters": "mortality rate: unit not given here", "conditions": "for Cases of deaths / Grade IV seizure rate / mortality rate / Cases of Grade IV: PTZ 65 mg/kg i.p., 10 mice; for Cases of Grade IV: 15 min observation; for Grade III seizure incubation period / Grade IV seizure incubation period: mean±SEM; for Grade IV seizure incubation period: no Grade IV recorded as maximum 900 s", "procedure": "• Animals: male ICR mice; • Medicines: Pentylenetetrazol (PTZ), Retigabine, Protein BD-11.\nExperiment grouping: • Model group; • Retigabine 60 mg/kg group; • Protein BD-11, 50 mg/kg group, 200 mg/kg group;\nThe drug was administered once in the afternoon the day before modeling, On the day of modeling, PTZ-65 mg/kg (modeling agent) was injected intraperitoneal 1 hour after the test drug was administered intragastrically, and the positive drug can be administered once half an hour before modeling. Continue to observe for 15 minutes after injection of PTZ.\nObservation index: ①Seizure situation: the time of seizures from Grade III to […]; ②Death situation\nas §1\nCount the cases of seizures and deaths in each group of mice in the experiment; Grade III and IV incubation period. The incubation period of mice that have not attacked to Grade IV is recorded as the maximum of 900 seconds. Chi-square test was used for statistics of the number of cases. Calculate the mean and standard error of the incubation period. Use TTEST to compare the model group with other groups, and P<0.05 is considered as a significant difference."}}}
{"molecule": "BD-11: recombinant keratin, amino acid sequence SEQ ID NO:1, expressed in E. coli, band around 59 kD; Example 4 batch tested (protein, listed as Bos taurus) MSRQSTITFQTSSRRGFSTASATTPATSRSRFSSASVTHSPAGSGGLGRISGFGSRSLYNLGGTKRVSISGCGSNFRSGFGGRASSGFGVSGGFGYGGGIGGGHGGCGFSVCPPGGIQEVTVNQSLLTPLNLQIDPNIQRVRKEEREQIKTLNNKFASFIDKVRFLEQQNKVLETKWSLLQEQGTRTVRQSLEPFFEAYITDLRRQLDSITTERGRLDAELRTMQDVVEDFKVRYEDEINKRTAAENEFVALKKDVDAAYLNKVDLEAKANSLTDEINFLQMLFEAELCQMQTRVSDTSVVLSMDNNRSLDLDSIIAEVKAQYEEIANRSRAEAESWYQTKYEELQVTAGQHGDDLRNTKQEISETNRMIQRLRAEIDNVKKQCASLQTAIADAEQRGELALKDARAKLVDLEEALQKSKQDMARLLREYQELMNIKLALDVEIATYRKLLEGEECRLSGEGVSPVNISVVTSTVSSGYGGGSSIGSGSLGLSGGSGCSFMTSGGHSLGGSSFSNSSSRGLGGSGSSFKFVSTTSSSRKSYKH", "values": [{"measurement": "Cases of deaths", "setting": "[1]; BD-11 50 mg/kg intragastric", "result": 0}, {"measurement": "Grade IV seizure rate", "setting": "[1]; BD-11 50 mg/kg intragastric", "result": 50, "unit": "%"}, {"measurement": "mortality rate", "setting": "[1]; BD-11 50 mg/kg intragastric", "result": 0}, {"measurement": "Cases of Grade IV", "setting": "[1]; BD-11 50 mg/kg intragastric", "result": 5}, {"measurement": "Grade II seizure incubation period", "setting": "[1]; BD-11 50 mg/kg, PLO model", "result": "95 ± 6", "unit": "s"}, {"measurement": "Grade III seizure incubation period", "setting": "[1]; BD-11 50 mg/kg, PLO model", "result": "164 ± 10", "unit": "s"}, {"measurement": "Grade IV seizure incubation period", "setting": "[1]; BD-11 50 mg/kg, PLO model", "result": "1357 ± 154", "unit": "s"}, {"measurement": "Incubation period of epilepsy Grade III, comparison with model group", "setting": "[1]; BD-11 200 mg/kg dose group, PLO model", "result": "statistically different from the model group"}, {"measurement": "Cases of deaths", "setting": "[1]; BD-11 200 mg/kg intragastric", "result": 0}, {"measurement": "Grade IV seizure rate", "setting": "[1]; BD-11 200 mg/kg intragastric", "result": 60, "unit": "%"}, {"measurement": "mortality rate", "setting": "[1]; BD-11 200 mg/kg intragastric", "result": 0}, {"measurement": "Cases of Grade IV", "setting": "[1]; BD-11 200 mg/kg intragastric", "result": 6}, {"measurement": "Grade II seizure incubation period", "setting": "[1]; BD-11 200 mg/kg, PLO model", "result": "96 ± 6", "unit": "s"}, {"measurement": "Grade III seizure incubation period", "setting": "[1]; BD-11 200 mg/kg, PLO model", "result": "164 ± 7", "unit": "s"}, {"measurement": "Grade IV seizure incubation period", "setting": "[1]; BD-11 200 mg/kg, PLO model", "result": "1114 ± 191", "unit": "s"}, {"measurement": "Effect on incubation period of Grade III epilepsy in mice (summary)", "setting": "[1]; dose not given", "result": "significantly prolong the incubation period of Grade III epilepsy"}, {"measurement": "Effect on increase in body temperature (summary)", "setting": "[2]; 2, 4, 6 and 8 hours after modeling, dose not given", "result": "significantly inhibit the increase in body temperature"}, {"measurement": "Body temperature 2 hours after modeling", "setting": "[2]; BD-11 10 mg/kg oral", "result": "37.2±0.2", "unit": "°C"}, {"measurement": "Body temperature 4 hours after modeling", "setting": "[2]; BD-11 10 mg/kg oral", "result": 37.7, "unit": "°C"}, {"measurement": "Body temperature 6 hours after modeling", "setting": "[2]; BD-11 10 mg/kg oral", "result": 37.6, "unit": "°C"}, {"measurement": "Body temperature 8 hours after modeling", "setting": "[2]; BD-11 10 mg/kg oral", "result": "37.4±0.1", "unit": "°C"}, {"measurement": "Body temperature 2 hours after modeling", "setting": "[2]; BD-11 50 mg/kg oral", "result": "37.3 ± 0.1", "unit": "°C"}, {"measurement": "Body temperature 4 hours after modeling", "setting": "[2]; BD-11 50 mg/kg oral", "result": "37.5 ± 0.2", "unit": "°C"}, {"measurement": "Body temperature 6 hours after modeling", "setting": "[2]; BD-11 50 mg/kg oral", "result": 37.7, "unit": "°C"}, {"measurement": "Body temperature 8 hours after modeling", "setting": "[2]; BD-11 50 mg/kg oral", "result": "37.7±0.2", "unit": "°C"}, {"measurement": "Effect on body temperature of model rats", "setting": "[2]; BD-11 10, 50 mg/kg oral, 2 hours after modeling", "result": "tendency to lower the body temperature of model rats 2 hours after modeling, but there is no statistically significant"}, {"measurement": "Cases of deaths", "setting": "[3]; BD-11 50 mg/kg intragastric", "result": 0}, {"measurement": "Grade IV seizure rate", "setting": "[3]; BD-11 50 mg/kg intragastric", "result": 90, "unit": "%"}, {"measurement": "mortality rate", "setting": "[3]; BD-11 50 mg/kg intragastric", "result": 0}, {"measurement": "Cases of Grade IV", "setting": "[3]; BD-11 50 mg/kg intragastric", "result": 9}, {"measurement": "Grade III seizure incubation period", "setting": "[3]; BD-11 50 mg/kg, PTZ model", "result": "68 ± 5", "unit": "s"}, {"measurement": "Grade IV seizure incubation period", "setting": "[3]; BD-11 50 mg/kg, PTZ model", "result": "203 ± 81", "unit": "s"}, {"measurement": "Incubation period of Grade III epilepsy, comparison with model group", "setting": "[3]; BD-11 200 mg/kg dose group, PTZ model", "result": "significantly different from the model group"}, {"measurement": "Cases of deaths", "setting": "[3]; BD-11 200 mg/kg intragastric", "result": 0}, {"measurement": "Grade IV seizure rate", "setting": "[3]; BD-11 200 mg/kg intragastric", "result": 60, "unit": "%"}, {"measurement": "mortality rate", "setting": "[3]; BD-11 200 mg/kg intragastric", "result": 0}, {"measurement": "Cases of Grade IV", "setting": "[3]; BD-11 200 mg/kg intragastric", "result": 6}, {"measurement": "Grade III seizure incubation period", "setting": "[3]; BD-11 200 mg/kg, PTZ model", "result": "94 ± 12", "unit": "s"}, {"measurement": "Grade IV seizure incubation period", "setting": "[3]; BD-11 200 mg/kg, PTZ model", "result": "428 ± 130", "unit": "s"}]}
